Read-outs that look alike come from different tables or passages of the source.
Test system: SARS-CoV-2
[1] = High risk population, Brazil, N = 698
[2] = High risk population, Brazil, N = 698 vs placebo N = 827
[3] = ITT population (Table 20), n=916 vs placebo 1003
[4] = ITT preliminary, n=916 vs placebo 1020

B1: pegylated interferon lambda-1a (protein)
chain: MKPTTTGKGCHIGRFKSLSPQELASFKKARDALEESLKLKNWSCSSPVFPGNWDLRLLQVRERPVALEAELALTLKVLEAAAGPALEDVLDQPLHTLHHILSQLQACIQPQPTAGPRPRGRLHHWLHRLQEAPKKESAGCLEASVTFNLFRLLTRDLKYVADGNLSLRTSTHPEST
modifications: PEG
notes: 180 mcg subcutaneous injection
**Q.** How did the “Hospitalization or ER (any duration) for COVID-19: total” value [1] turn out when B1 was run?
**A.** Its value is 76.

**Q.** And the “Hospitalization or ER >6 h for COVID-19: percentage” value [1]?
**A.** Its value is “(3.2%)”.

**Q.** And the “Hospitalization or ER >6 h for COVID-19: total” value [1]?
**A.** The value was 22.

**Q.** What about the “Mechanical ventilation: percentage” value [1] of the same molecule?
**A.** Its value is “(0.6%)”.

**Q.** What about the “Mechanical ventilation: total” value [1] of the same molecule?
**A.** Its value is 4.

**Q.** And the “All cause ER visit >6 h, hospitalization, or death: Pr (Superiority)” value [2]?
**A.** Its value is 0.981.

**Q.** What about the “All cause ER visit >6 h, hospitalization, or death: RR (95% CrI), estimated treatment effect” value [2] of the same molecule?
**A.** The value was 0.64 (0.42, 0.97).

**Q.** And the “All cause ER visit, hospitalization, or death: Pr (Superiority)” value [2]?
**A.** Its value is 0.883.

**Q.** And the “All cause ER visit, hospitalization, or death: RR (95% CrI), estimated treatment effect” value [2]?
**A.** The value was 0.86 (0.68, 1.10).

**Q.** And the “All cause death or hospitalization due to COVID-19: Pr (Superiority)” value [2]?
**A.** Its value is 0.924.

**Q.** And the “All cause death or hospitalization due to COVID-19: RR (95% CrI), estimated treatment effect” value [2]?
**A.** Its value is 0.69 (0.41, 1.14).

**Q.** And the “Days of hospitalization: MD (95% CrI), estimated treatment effect” value [2]?
**A.** The value was −1.39 (−4.38, 1.20).

**Q.** And the “Days of hospitalization: Pr (Superiority)” value [2]?
**A.** Its value is 0.8509.

**Q.** And the “Days on mechanical ventilation: MD (95% CrI), estimated treatment effect” value [2]?
**A.** Its value is −4.47 (−6.89, 3.09).

**Q.** And the “Days on mechanical ventilation: Pr (Superiority)” value [2]?
**A.** Its value is 0.9052.

**Q.** What about the “Days to death for COVID-19: HR (95% CrI), estimated treatment effect” value [2] of the same molecule?
**A.** Its value is 0.23 (0.01, 1.79).

**Q.** And the “Days to death for COVID-19: Pr (Superiority)” value [2]?
**A.** Its value is 0.9080.

**Q.** What about the “Days to hospitalization for COVID-19: HR (95% CrI), estimated treatment effect” value [2] of the same molecule?
**A.** Its value is 0.58 (0.33, 0.98).

**Q.** What about the “Days to hospitalization for COVID-19: Pr (Superiority)” value [2] of the same molecule?
**A.** Its value is 0.9780.

**Q.** And the “Days to hospitalization or ER visit >6 h for COVID-19: HR (95% CrI), estimated treatment effect” value [2]?
**A.** The value was 0.47 (0.28, 0.76).

**Q.** What about the “Days to hospitalization or ER visit >6 h for COVID-19: Pr (Superiority)” value [2] of the same molecule?
**A.** The value was 0.9992.

**Q.** And the “Days to hospitalization or death for COVID-19: HR (95% CrI), estimated treatment effect” value [2]?
**A.** Its value is 0.62 (0.35, 1.05).

**Q.** What about the “Days to hospitalization or death for COVID-19: Pr (Superiority)” value [2] of the same molecule?
**A.** Its value is 0.9610.

**Q.** And the “Days to recovery: HR (95% CrI), estimated treatment effect” value [2]?
**A.** The value was 0.93 (0.83, 1.04).

**Q.** What about the “Days to recovery: Pr (Superiority)” value [2] of the same molecule?
**A.** Its value is 0.8862.

**Q.** And the “Death due to COVID-19: Pr (Superiority)” value [2]?
**A.** Its value is 0.845.

**Q.** And the “Death due to COVID-19: RR (95% CrI), estimated treatment effect” value [2]?
**A.** Its value is 0.42 (0.05, 2.08).

**Q.** What about the “Death or hospitalization due to COVID-19: Pr (Superiority)” value [2] of the same molecule?
**A.** Its value is 0.961.

**Q.** What about the “Death or hospitalization due to COVID-19: RR (95% CrI), estimated treatment effect” value [2] of the same molecule?
**A.** The value was 0.63 (0.37, 1.05).

**Q.** What about the “Hospitalization for COVID-19 (excluding those resulting in death): Pr (Superiority)” value [2] of the same molecule?
**A.** The value was 0.928.

**Q.** And the “Hospitalization for COVID-19 (excluding those resulting in death): RR (95% CrI), estimated treatment effect” value [2]?
**A.** The value was 0.67 (0.39, 1.14).

**Q.** What about the “Hospitalization or ER (any duration) for COVID-19: Pr (Superiority)” value [2] of the same molecule?
**A.** The value was 0.991.

**Q.** And the “Hospitalization or ER (any duration) for COVID-19: RR (95% CrI), estimated treatment effect” value [2]?
**A.** The value was 0.72 (0.56, 0.95).

**Q.** And the “Hospitalization or ER >6 h for COVID-19: Pr (Superiority)” value [2]?
**A.** The value was 0.999.

**Q.** What about the “Hospitalization or ER >6 h for COVID-19: RR (95% CI), estimated treatment effect” value [2] of the same molecule?
**A.** Its value is 0.49 (0.30, 0.78).

**Q.** What about the “Mechanical ventilation: Pr (Superiority)” value [2] of the same molecule?
**A.** The value was 0.717.

**Q.** And the “Mechanical ventilation: RR (95% CrI), estimated treatment effect” value [2]?
**A.** Its value is 0.72 (0.21, 2.21).

**Q.** What about the “All cause ER visit >6 h, hospitalization, or death, % of patients” value [3] of the same molecule?
**A.** Its value is “(3.7%)”.

**Q.** What about the “All cause ER visit >6 h, hospitalization, or death, Pr (Superiority)” value [3] of the same molecule?
**A.** Its value is 0.987.

**Q.** What about the “All cause ER visit >6 h, hospitalization, or death, RR (95% CrI) vs placebo” value [3] of the same molecule?
**A.** The value was 0.64 (0.42, 0.95).

**Q.** And the “All cause ER visit, hospitalization, or death, % of patients” value [3]?
**A.** The value was “(13.5%)”.

**Q.** And the “All cause ER visit, hospitalization, or death, Pr (Superiority)” value [3]?
**A.** Its value is 0.831.

**Q.** What about the “All cause ER visit, hospitalization, or death, RR (95% CrI) vs placebo” value [3] of the same molecule?
**A.** The value was 0.90 (0.72, 1.12).

**Q.** And the “All cause death or hospitalization due to COVID-19, % of patients” value [3]?
**A.** The value was “(2.6%)”.

**Q.** What about the “All cause death or hospitalization due to COVID-19, RR (95% CrI) vs placebo” value [3] of the same molecule?
**A.** Its value is 0.66 (0.40, 1.07).

**Q.** What about the “Days of hospitalization, IRR (95% CrI) vs placebo” value [3] of the same molecule?
**A.** The value was −1.02 (−3.86, 1.37).

**Q.** And the “Days on mechanical ventilation, IRR (95% CrI) vs placebo” value [3]?
**A.** The value was −4.47 (−6.89, 3.09).

**Q.** And the “Days to death for COVID-19, HR (95% CrI) vs placebo” value [3]?
**A.** The value was 0.22 (0.01, 1.64).

**Q.** What about the “Days to hospitalization for COVID-19, HR (95% CrI) vs placebo” value [3] of the same molecule?
**A.** The value was 0.57 (0.33, 0.95).

**Q.** And the “Days to hospitalization or ER visit >6 h for COVID-19, HR (95% CrI) vs placebo” value [3]?
**A.** Its value is 0.47 (0.29, 0.73).

**Q.** And the “Days to hospitalization or ER visit >6 h for COVID-19, Pr (Superiority)” value [3]?
**A.** Its value is 0.999.

**Q.** And the “Days to hospitalization or death for COVID-19, HR (95% CrI) vs placebo” value [3]?
**A.** The value was 0.59 (0.35, 1.00).

**Q.** And the “Days to recovery, HR (95% CrI) vs placebo” value [3]?
**A.** The value was 0.94 (0.85, 1.05).

**Q.** What about the “Death due to COVID-19, % of patients” value [3] of the same molecule?
**A.** Its value is “(0.1%)”.

**Q.** And the “Death due to COVID-19, RR (95% CrI) vs placebo” value [3]?
**A.** Its value is 0.40 (0.05, 1.95).

**Q.** What about the “Death or hospitalization due to COVID-19, % of patients” value [3] of the same molecule?
**A.** Its value is “(2.4%)”.

**Q.** What about the “Death or hospitalization due to COVID-19, RR (95% CrI) vs placebo” value [3] of the same molecule?
**A.** Its value is 0.61 (0.36, 0.99).

**Q.** What about the “Hospitalization or ER (any duration) for COVID-19, % of patients” value [3] of the same molecule?
**A.** Its value is “(10.8%)”.

**Q.** And the “Hospitalization or ER (any duration) for COVID-19, Pr (Superiority)” value [3]?
**A.** Its value is 0.981.

**Q.** What about the “Hospitalization or ER (any duration) for COVID-19, RR (95% CrI) vs placebo” value [3] of the same molecule?
**A.** Its value is 0.78 (0.61, 0.99).

**Q.** What about the “Hospitalization or ER >6 h for COVID-19, % of patients” value [3] of the same molecule?
**A.** The value was “(2.7%)”.

**Q.** What about the “Hospitalization or ER >6 h for COVID-19, Pr (Superiority)” value [3] of the same molecule?
**A.** Its value is 0.999.

**Q.** What about the “Hospitalization or ER >6 h for COVID-19, RR (95% CI) vs placebo” value [3] of the same molecule?
**A.** The value was 0.49 (0.30, 0.76).

**Q.** And the “Mechanical ventilation, % of patients” value [3]?
**A.** The value was “(0.4%)”.

**Q.** And the “Mechanical ventilation, RR (95% CrI) vs placebo” value [3]?
**A.** The value was 0.66 (0.20, 2.03).

**Q.** What about the “Days to hospitalization for COVID-19, IQR” value (ITT preliminary, n=916) of the same molecule?
**A.** The value was 3.0.

**Q.** And the “Days to hospitalization for COVID-19, Mean” value (ITT preliminary, n=916)?
**A.** The value was 5.10.

**Q.** And the “Days to hospitalization for COVID-19, Median” value (ITT preliminary, n=916)?
**A.** Its value is 4.0.

**Q.** And the “Days to hospitalization or ER visit ≥6 h for COVID-19, IQR” value (ITT preliminary, n=916)?
**A.** Its value is 3.0.

**Q.** What about the “Days to hospitalization or ER visit ≥6 h for COVID-19, Mean” value (ITT preliminary, n=916) of the same molecule?
**A.** The value was 5.8.

**Q.** What about the “Days to hospitalization or ER visit ≥6 h for COVID-19, Median” value (ITT preliminary, n=916) of the same molecule?
**A.** Its value is 4.0.

**Q.** And the “Days until death due to COVID-19, IQR” value (ITT preliminary, n=916)?
**A.** Its value is 16.0.

**Q.** And the “Days until death due to COVID-19, Mean” value (ITT preliminary, n=916)?
**A.** Its value is 22.

**Q.** And the “Days until death due to COVID-19, Median” value (ITT preliminary, n=916)?
**A.** The value was 22.0.

**Q.** And the “Any cause Death, % of patients” value (ITT preliminary, n=916, 28 days)?
**A.** Its value is “(0.3%)”.

**Q.** And the “ER visits over 6 hrs, % of patients” value [4]?
**A.** The value was 0.7%.

**Q.** And the “Relative Reduction in Risk, Deaths” value [4]?
**A.** Its value is 0.72.

**Q.** What about the “Relative Reduction in Risk, ER visits over 6 hrs” value [4] of the same molecule?
**A.** Its value is 0.68.

**Q.** And the “Relative Reduction in Risk, Hospitalizations” value [4]?
**A.** The value was 0.43.

**Q.** And the “Relative Reduction in Risk, Hospitalizations or ER visits over 6 hrs” value [4]?
**A.** The value was 0.50.

**Q.** What about the “Death due to COVID-19, RR (95% CrI) vs placebo” value (ITT preliminary, n=916 vs placebo 1020, 28 days) of the same molecule?
**A.** Its value is 0.40 (0.05, 2.00).

Source: patent US20230201308A1, “TREATMENT OF CORONAVIRUS INFECTION WITH […]” (Eiger Biopharmaceuticals, Inc., priority 2020, published 2023)
